# Where no end group is shown, it is not given here. [ ]: non-standard residue; d: D form. Sta = CC(C)C[C@H](N)[C@@H](O)CC(=O)O
# Molecular target: T1, recombinant human beta secretase (BACE), E. coli construct pQE70-BACE (human, UniProt P56817 57-453)
# T1 construct: also called Asp2; memapsin 2
# Assay: affinity chromatography, peptide immobilised on resin
# Description: Prior to purification, the pH of the refolded protein was lowered from about 10 to 8.5 with HCl. The solution was loaded onto three 50 ml Q-Sepharose columns (Pharmacia Biotech XK 50). The columns were pre-equilibrated in 0.4 M Urea, 10 mM AMPSO, pH 8.5. After refolded protein was loaded onto the columns, they were washed with 500 ml of 0.4 M Urea, 10 mM TRIS, pH 8.2. The columns were eluted with 180-245 ml of 0.75 M NaCl in 0.4 M Urea 10 mM TRIS buffer, pH 8.2. The eluates were then dialyzed versus 20 mM HEPES, pH 8.0. The samples were then removed from dialysis and dropped into 1 M NaMES, pH 5.7 (0.1 M final concentration). After centrifugation (20 K×g) the supernatant was dropped into 1 M Na-acetate, 1 M NaMES, pH 5.0 (0.2 M Na-acetate, 0.28 M Na-MES was the final concentration). […] This solution was then applied to a 15 ml affinity column equilibrated at the same pH. The column was washed with 6 column volumes of 20 mM sodium acetate buffer pH 4.5, 150 mM NaCl. BACE was eluted at pH 8.5 using about 50 ml of 0.1 M borate buffer. This final step removed any residual contaminants. From 40 liter of *E. coli* cell culture, the amount of protein obtained was 137 mg of highly purified pQE70-BACE construct. Purified pQE70-BACE was dialyzed into 100 mM NaBorate pH 8.5.
# T1 sequence (P56817 other isoform, or with tags, fused parts or gaps limits assumed): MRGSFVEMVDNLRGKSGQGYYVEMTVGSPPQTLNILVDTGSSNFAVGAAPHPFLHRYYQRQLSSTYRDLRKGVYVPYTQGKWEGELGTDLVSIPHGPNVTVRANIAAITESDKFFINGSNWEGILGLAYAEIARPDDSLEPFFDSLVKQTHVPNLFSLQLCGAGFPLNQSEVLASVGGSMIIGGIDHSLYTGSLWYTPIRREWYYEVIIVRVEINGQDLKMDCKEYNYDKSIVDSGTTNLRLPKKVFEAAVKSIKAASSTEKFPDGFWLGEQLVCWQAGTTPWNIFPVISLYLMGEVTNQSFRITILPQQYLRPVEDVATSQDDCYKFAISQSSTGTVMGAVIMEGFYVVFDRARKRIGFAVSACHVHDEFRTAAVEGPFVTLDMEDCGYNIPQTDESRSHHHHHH
binder,measurement,value
SEVN[Sta]VAEFRGGC [synthetic peptide Ser-Glu-Val-Asn-Sta-Val-Ala-Glu-Phe-Arg-Gly-Gly-Cys (where Sta=statine)],binding result,binds
